Measurements from patent publication US20190064177A1, “INCORPORATING COMPETITIVE BINDING INFORMATION INTO MOLECULAR ARRAY ANALYSIS TO GENERATE FUNCTION NETWORKS OF INTERACTIONS” (ARIZONA BOARD OF REGENTS ON BEHALF OF ARIZONA STATE …, priority 2017, published 2019).

Key:
Diaphorase [1] = assay: peptide array, 1 uM labeled diaphorase, with FAD
Diaphorase [2] = assay: peptide array, 1 uM labeled diaphorase, no FAD
Diaphorase [3] = assay: peptide array, 1 uM diaphorase, binding without FAD / with FAD
Diaphorase [4] = assay: peptide array, 10 uM labeled diaphorase, with FAD
Diaphorase [5] = assay: peptide array, 10 uM labeled diaphorase, no FAD; detector saturation
Diaphorase [6] = assay: peptide array, 10 uM diaphorase, binding without FAD / with FAD
Diaphorase [7] = assay: peptide array, 10 uM labeled diaphorase, with FAD; detector saturation
Diaphorase [8] = assay: peptide array, 10 uM labeled diaphorase, no FAD

B1: … (peptide)
peptide: RLYPQGYGGSG
Work on B1 yielded a fluorescence (Diaphorase [1]) of 4540, a fluorescence (Diaphorase [2]) of 11900 and a noFAD/FAD (Diaphorase [3]) of 2.62. It also gave a fluorescence (Diaphorase [4]) of 61700, a fluorescence (Diaphorase [5]) greater than 65500 and a noFAD/FAD (Diaphorase [6]) of 1.06.

B2: … (peptide)
peptide: PRYSGQYGGSG
In the case of B2, the fluorescence (Diaphorase [1]) is reported as 3230, the fluorescence (Diaphorase [2]) is reported as 8430 and the noFAD/FAD (Diaphorase [3]) is reported as 2.61. For the same binder, the fluorescence (Diaphorase [4]) was 45200, the fluorescence (Diaphorase [5]) was greater than 65500 and the noFAD/FAD (Diaphorase [6]) was 1.45.

B3: … (peptide)
peptide: RYYPAFSGGSG
B3 showed a fluorescence (Diaphorase [7]) greater than 65500, a fluorescence (Diaphorase [1]) of 7540 and a fluorescence (Diaphorase [2]) of 21900. For the same binder, the noFAD/FAD (Diaphorase [3]) was 2.91, the fluorescence (Diaphorase [5]) was greater than 65500 and the noFAD/FAD (Diaphorase [6]) was 1.

B4: … (peptide)
peptide: RWQYYNQKFGSG
B4 showed a fluorescence (Diaphorase [7]) greater than 65500, a fluorescence (Diaphorase [1]) of 5460 and a fluorescence (Diaphorase [2]) of 15700. It also gave a noFAD/FAD (Diaphorase [3]) of 2.88, a fluorescence (Diaphorase [5]) greater than 65500 and a noFAD/FAD (Diaphorase [6]) of 1.

B5: … (peptide)
peptide: DLFQLVFSGSG
With B5 the fluorescence (Diaphorase [7]) was greater than 65500, the fluorescence (Diaphorase [1]) was 9010 and the fluorescence (Diaphorase [2]) was 5780. For the same binder, the noFAD/FAD (Diaphorase [3]) was 0.641, the fluorescence (Diaphorase [8]) was 32700 and the noFAD/FAD (Diaphorase [6]) was 0.499.

B6: … (peptide)
peptide: YRNAAWFSGGSG
For B6, the fluorescence (Diaphorase [1]) was 2930, the fluorescence (Diaphorase [2]) was 8370 and the noFAD/FAD (Diaphorase [3]) was 2.86. For the same binder, the fluorescence (Diaphorase [4]) was 43300, the fluorescence (Diaphorase [5]) was greater than 65500 and the noFAD/FAD (Diaphorase [6]) was 1.51.

B7: … (peptide)
peptide: PRYQNFGGGSG
B7 showed a fluorescence (Diaphorase [1]) of 2460, a fluorescence (Diaphorase [2]) of 6910 and a noFAD/FAD (Diaphorase [3]) of 2.81. It also gave a fluorescence (Diaphorase [4]) of 36700, a fluorescence (Diaphorase [5]) greater than 65500 and a noFAD/FAD (Diaphorase [6]) of 1.79.

B8: … (peptide)
peptide: RYPWNKLYKFDGSG
For B8, the fluorescence (Diaphorase [1]) was 3480, the fluorescence (Diaphorase [2]) was 9740 and the noFAD/FAD (Diaphorase [3]) was 2.8. The fluorescence (Diaphorase [4]) was 53000, the fluorescence (Diaphorase [5]) was greater than 65500 and the noFAD/FAD (Diaphorase [6]) was 1.24.

B9: … (peptide)
peptide: RWSFPAKGGSG
B9 showed a fluorescence (Diaphorase [1]) of 3610, a fluorescence (Diaphorase [2]) of 10000 and a noFAD/FAD (Diaphorase [3]) of 2.77. It also gave a fluorescence (Diaphorase [4]) of 51200, a fluorescence (Diaphorase [5]) greater than 65500 and a noFAD/FAD (Diaphorase [6]) of 1.28.

B10: … (peptide)
peptide: YRPYGPVYNGGSG
Binder B10 has a fluorescence (Diaphorase [7]) greater than 65500, a fluorescence (Diaphorase [1]) of 6760 and a fluorescence (Diaphorase [2]) of 18700. It also gave a noFAD/FAD (Diaphorase [3]) of 2.77, a fluorescence (Diaphorase [5]) greater than 65500 and a noFAD/FAD (Diaphorase [6]) of 1.
